Source: patent US20200231681A1
Several values for one entry are separate records, joined by “and”; a condition that tells them apart may be missing. Equal values may be shown once.

Columns and labels:
[1] = target: human FGF R3 (IIIc) Fc chimera (R&D systems, 766-FR) (human) (UniProt P22607); assay: indirect ELISA, hu8C4 at 0.010 nM
[2] = target: human FGF R3 (IIIc) Fc chimera (R&D systems, 766-FR) (human) (UniProt P22607); assay: indirect ELISA, hu8C4 at 30.000 nM
[3] = target: human FGF R3 (IIIc) Fc chimera (R&D systems, 766-FR) (human) (UniProt P22607); assay: indirect ELISA, hu8C4 at 0.002 nM
[4] = target: human FGF R3 (IIIc) Fc chimera (R&D systems, 766-FR) (human) (UniProt P22607); assay: indirect ELISA, hu8C4 at 0.048 nM
[5] = target: c-Met receptor on human tumor cells (MKN45, NCI-H820, HCC827) (human) (UniProt P08581); assay: flow cytometry on MKN45 cells, (MFI 37° C. - IgG)/(MFI 4° C. - IgG) x 100
[6] = target: c-Met receptor on human tumor cells (MKN45, NCI-H820, HCC827) (human) (UniProt P08581); assay: flow cytometry on MKN45 cells, 100 nM antibody, 4° C. 1 hour (not internalized), anti-human kappa LC-FITC
[7] = target: c-Met receptor on human tumor cells (MKN45, NCI-H820, HCC827) (human) (UniProt P08581); assay: flow cytometry on MKN45 cells, 100 nM antibody overnight at 37° C., antibody left on the surface, anti-human kappa LC-FITC

c-Met receptor on human tumor cells (MKN45, NCI-H820, HCC827) (human), sequence (P08581 25-1390): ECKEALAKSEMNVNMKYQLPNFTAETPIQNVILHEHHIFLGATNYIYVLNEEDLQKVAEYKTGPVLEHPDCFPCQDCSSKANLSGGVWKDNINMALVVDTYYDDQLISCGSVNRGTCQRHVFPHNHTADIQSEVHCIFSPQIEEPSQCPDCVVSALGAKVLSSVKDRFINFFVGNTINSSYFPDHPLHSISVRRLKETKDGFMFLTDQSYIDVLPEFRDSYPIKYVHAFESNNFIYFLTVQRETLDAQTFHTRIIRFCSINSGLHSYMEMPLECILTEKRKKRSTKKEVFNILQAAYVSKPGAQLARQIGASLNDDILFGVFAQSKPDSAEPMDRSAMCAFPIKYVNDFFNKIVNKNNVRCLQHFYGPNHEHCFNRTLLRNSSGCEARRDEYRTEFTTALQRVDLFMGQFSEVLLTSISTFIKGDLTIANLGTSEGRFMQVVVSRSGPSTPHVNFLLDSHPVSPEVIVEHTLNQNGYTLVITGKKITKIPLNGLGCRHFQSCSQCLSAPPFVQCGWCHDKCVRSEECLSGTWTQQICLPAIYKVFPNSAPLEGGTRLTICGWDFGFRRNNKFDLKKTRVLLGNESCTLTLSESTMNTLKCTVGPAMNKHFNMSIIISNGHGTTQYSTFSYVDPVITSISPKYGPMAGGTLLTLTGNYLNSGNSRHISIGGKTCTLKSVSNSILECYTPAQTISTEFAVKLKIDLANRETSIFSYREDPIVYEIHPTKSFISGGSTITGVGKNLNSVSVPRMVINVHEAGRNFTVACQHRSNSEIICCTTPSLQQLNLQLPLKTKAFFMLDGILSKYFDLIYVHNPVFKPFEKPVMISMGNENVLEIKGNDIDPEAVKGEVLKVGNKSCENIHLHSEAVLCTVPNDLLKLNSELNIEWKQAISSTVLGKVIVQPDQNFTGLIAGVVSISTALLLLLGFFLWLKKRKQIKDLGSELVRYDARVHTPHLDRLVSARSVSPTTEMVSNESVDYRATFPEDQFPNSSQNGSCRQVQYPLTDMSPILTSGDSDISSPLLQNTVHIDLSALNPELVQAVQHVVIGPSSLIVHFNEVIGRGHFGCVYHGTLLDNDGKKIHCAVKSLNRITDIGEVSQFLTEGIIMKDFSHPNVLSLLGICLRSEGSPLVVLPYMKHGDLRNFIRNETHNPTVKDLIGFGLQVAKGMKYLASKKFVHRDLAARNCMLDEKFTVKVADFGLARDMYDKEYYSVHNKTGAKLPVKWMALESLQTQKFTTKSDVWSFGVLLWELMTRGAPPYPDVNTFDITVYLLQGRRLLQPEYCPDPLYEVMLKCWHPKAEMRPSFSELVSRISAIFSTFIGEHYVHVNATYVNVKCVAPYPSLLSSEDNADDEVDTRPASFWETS

Row | A450 nm-A570 nm (A450 nm-A570 nm) [1] | A450 nm-A570 nm (A450 nm-A570 nm) [2] | A450 nm-A570 nm (A450 nm-A570 nm) [3] | A450 nm-A570 nm (A450 nm-A570 nm) [4] | Surface bound Ab(%) [5] [%] | FITC MFI [4° C. control] (FITC geo-mean (MFI)) [6] | FITC MFI [37° C. exp.] (FITC geo-mean (MFI)) [7] | Binder
1 | 0 | 0.01 and 0.02 | 0 | 0 | – | – | – | hu8C4 (IgG1 humanized antibody having a hinge region of SEQ ID NO: 38 in hu8C4-1) (antibody, V domains shown) VH: EVQLVESGGGLVQPGGSLRLSCAASGYTFSDYYINWVRQAPGKGLEWIGEIFPGSGNTHFSARFKGRATLSADKSKNTAYLQMNSLRAEDTAVYYCAGGDYGFLYWGQGTLVTVSS VL: DIQMTQSPSSLSASVGDRVTITCGASENIYGALNWYQQKPGKAPKLLIYGATNLADGVPSRFSGSGSGRDFTFTISSLQPEDIATYYCQNVLSSPYTFGQGTKVEIK
2 | – | – | – | – | 98 | 1760 | 1720 | OA-5D5 (Genentech) (antibody, INN chains, looked up, V domains shown, one-armed) VH: EVQLVESGGGLVQPGGSLRLSCAASGYTFTSYWLHWVRQAPGKGLEWVGMIDPSNSDTRFNPNFKDRFTISADTSKNTAYLQMNSLRAEDTAVYYCATYRSYVTPLDYWGQGTLVTVSS VL: DIQMTQSPSSLSASVGDRVTITCKSSQSLLYTSSQKNYLAWYQQKPGKAPKLLIYWASTRESGVPSRFSGSGSGTDFTLTISSLQPEDFATYYCQQYYAYPWTFGQGTKVEIK
